Assay results: patent US20160024487

Columns and labels:
human α-thrombin (FIIa) = human α-thrombin (FIIa) (UniProt P00734)
[1] = tested on: Lys(Dnp)-ATNATINPRIVGG-Lys(Abz)
[2] = tested on: Lys(Dnp)-ATNATPFPRIVGG-Lys(Abz)
[3] = tested on: Lys(Dnp)-ATNATFWPRIVGG-Lys(Abz)
[4] = tested on: Lys(Dnp)-ATNATKHPRIVGG-Lys(Abz)
[5] = tested on: Lys(Dnp)-ATNATNPPRIVGG-Lys(Abz)
[6] = tested on: Lys(Dnp)-NESTTKIKPRIVGG-Lys(Abz)
[7] = tested on: Lys(Dnp)-ATNATEAPRIVGG-Lys(Abz)
[8] = tested on: Lys(Dnp)-ATNATDEPRIVGG-Lys(Abz)
[9] = tested on: Lys(Dnp)-ATNATKYPRIVGG-Lys(Abz)
[10] = tested on: Lys(Dnp)-ATNATVFPRIVGG-Lys(Abz)
[11] = tested on: Lys(Dnp)-ATNATNDPRIVGG-Lys(Abz)
[12] = tested on: Lys(Dnp)-ATNATHFPRIVGG-Lys(Abz)
[13] = tested on: Lys(Dnp)-ATNATDFPRIVGG-Lys(Abz)
[14] = tested on: Lys(Dnp)-ATNATRIPRIVGG-Lys(Abz)
[15] = tested on: Lys(Dnp)-ATNATKTPRIVGG-Lys(Abz)
[16] = tested on: Lys(Dnp)-ATNATEVPRIVGG-Lys(Abz)
[17] = tested on: Lys(Dnp)-ATNATQDPRIVGG-Lys(Abz)
[18] = tested on: Lys(Dnp)-ATNATIDPRIVGG-Lys(Abz)
[19] = tested on: Lys(Dnp)-ATNATLVPRIVGG-Lys(Abz)
[20] = tested on: Lys(Dnp)-ATNATFIPRIVGG-Lys(Abz)
[21] = tested on: Lys(Dnp)-ATNATTNPRIVGG-Lys(Abz)
[22] = tested on: Lys(Dnp)-ATNATQQPRIVGG-Lys(Abz)
[23] = tested on: Lys(Dnp)-ATNATYKPRIVGG-Lys(Abz)
[24] = tested on: Lys(Dnp)-ATNATANPRIVGG-Lys(Abz)
[25] = tested on: Lys(Dnp)-ATNATEPPRIVGG-Lys(Abz)
[26] = tested on: PAR 1 control substrate sequence [Lys(Dnp)-ATNATLDPRIVGG-Lys(Abz)]
[27] = tested on: Lys(Dnp)-ATNATARPRIVGG-Lys(Abz)
[28] = tested on: Lys(Dnp)-DQVTVAMTPRIVGG-Lys(Abz)
[29] = tested on: Lys(Dnp)-ATNATNGPRIVGG-Lys(Abz)
[30] = tested on: Lys(Dnp)-ATNATGNPRIVGG-Lys(Abz)
[31] = tested on: Lys(Dnp)-ATNATDHPRIVGG-Lys(Abz)
[32] = tested on: Lys(Dnp)-DFLAEGGGPRIVGG-Lys(Abz)
[33] = tested on: Lys(Dnp)-ATNATQPPRIVGG-Lys(Abz)
[34] = tested on: Lys(Dnp)-SEYQTFFNPRIVGG-Lys(Abz)
[35] = tested on: Lys(Dnp)-ATNATDKPRIVGG-Lys(Abz)
[36] = tested on: Lys(Dnp)-ATNATKMPRIVGG-Lys(Abz)
[37] = tested on: Lys(Dnp)-ATNATVLPRIVGG-Lys(Abz)
[38] = tested on: Lys(Dnp)-EDSDRAIEGRIVGG-Lys(Abz)
[39] = tested on: Lys(Dnp)-ATNATTEPRIVGG-Lys(Abz)
[40] = tested on: Lys(Dnp)-ATNATDIPRIVGG-Lys(Abz)
[41] = tested on: Lys(Dnp)-ATNATHNPRIVGG-Lys(Abz)
[42] = tested on: Lys(Dnp)-ATNATFQPRIVGG-Lys(Abz)
[43] = tested on: Lys(Dnp)-DNEEGFFSARIVGG-Lys(Abz)
[44] = tested on: Lys(Dnp)-ATNATAVPRIVGG-Lys(Abz)
[45] = tested on: Lys(Dnp)-ATNATHHPRIVGG-Lys(Abz)
[46] = tested on: Lys(Dnp)-ATNATHGPRIVGG-Lys(Abz)
[47] = tested on: Lys(Dnp)-ATNATTDPRIVGG-Lys(Abz)
[48] = tested on: Lys(Dnp)-ATNATWPPRIVGG-Lys(Abz)
[49] = tested on: Lys(Dnp)-ATNATPDPRIVGG-Lys(Abz)
[50] = tested on: Lys(Dnp)-ATNATPAPRIVGG-Lys(Abz)
[51] = tested on: Lys(Dnp)-ATNATAMPRIVGG-Lys(Abz)
[52] = tested on: Lys(Dnp)-ATNATQNPRIVGG-Lys(Abz)
[53] = tested on: Lys(Dnp)-ATNATVSPRIVGG-Lys(Abz)
[54] = tested on: Lys(Dnp)-ATNATSSPRIVGG-Lys(Abz)
[55] = tested on: FX ins[194]>[DFLAEGGGPR]-HPC4
Chain of FX ins[194]>[DFLAEGGGPR]-HPC4 (chain, as listed by the source): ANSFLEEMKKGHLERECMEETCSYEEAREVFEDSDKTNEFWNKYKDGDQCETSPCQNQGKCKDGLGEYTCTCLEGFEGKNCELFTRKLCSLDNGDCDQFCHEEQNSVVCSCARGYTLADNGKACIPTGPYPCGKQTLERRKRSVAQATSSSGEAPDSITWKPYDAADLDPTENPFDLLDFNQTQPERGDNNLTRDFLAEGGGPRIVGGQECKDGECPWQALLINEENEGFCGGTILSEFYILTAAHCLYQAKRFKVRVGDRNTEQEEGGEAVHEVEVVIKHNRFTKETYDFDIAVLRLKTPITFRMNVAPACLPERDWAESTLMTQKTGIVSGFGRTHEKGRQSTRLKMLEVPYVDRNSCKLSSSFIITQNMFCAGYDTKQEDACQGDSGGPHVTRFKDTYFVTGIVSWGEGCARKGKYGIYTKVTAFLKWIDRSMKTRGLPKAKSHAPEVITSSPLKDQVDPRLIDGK

[56] = tested on: FpA_P quenched fluorescence substrate Lys(Dnp)-DFLAEGGGPRIVGG-Lys(Abz)
[57] = tested on: At least 20 sequences selected from the QF-substrate library
[58] = tested on: 21k-HEP-[N]-FX ins[194]>[DFLAEGGGVR]-HPC4
Chain of 21k-HEP-[N]-FX ins[194]>[DFLAEGGGVR]-HPC4 (chain, as listed by the source): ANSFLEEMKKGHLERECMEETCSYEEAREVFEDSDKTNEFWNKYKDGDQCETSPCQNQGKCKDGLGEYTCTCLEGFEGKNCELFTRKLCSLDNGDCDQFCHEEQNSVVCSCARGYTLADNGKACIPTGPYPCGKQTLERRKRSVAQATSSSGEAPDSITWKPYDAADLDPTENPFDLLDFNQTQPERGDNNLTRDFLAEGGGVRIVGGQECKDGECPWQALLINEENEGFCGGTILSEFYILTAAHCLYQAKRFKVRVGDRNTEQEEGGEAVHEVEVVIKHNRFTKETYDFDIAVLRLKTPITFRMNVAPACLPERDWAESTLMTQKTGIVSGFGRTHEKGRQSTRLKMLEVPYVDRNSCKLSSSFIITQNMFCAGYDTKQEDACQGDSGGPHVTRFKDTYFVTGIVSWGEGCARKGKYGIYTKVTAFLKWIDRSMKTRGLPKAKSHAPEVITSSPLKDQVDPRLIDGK

[59] = tested on: 40k-HEP-[N]-FX ins[194]>[DFLAEGGGVR]-HPC4
[60] = tested on: 73k-HEP-[N]-FX ins[194]>[DFLAEGGGVR]-HPC4
[61] = tested on: FX ins[194]>[DFLAEGGGVR]-HPC4

Chain of FX [191-194]>[LTPR]-HPC4 (chain, as listed by the source): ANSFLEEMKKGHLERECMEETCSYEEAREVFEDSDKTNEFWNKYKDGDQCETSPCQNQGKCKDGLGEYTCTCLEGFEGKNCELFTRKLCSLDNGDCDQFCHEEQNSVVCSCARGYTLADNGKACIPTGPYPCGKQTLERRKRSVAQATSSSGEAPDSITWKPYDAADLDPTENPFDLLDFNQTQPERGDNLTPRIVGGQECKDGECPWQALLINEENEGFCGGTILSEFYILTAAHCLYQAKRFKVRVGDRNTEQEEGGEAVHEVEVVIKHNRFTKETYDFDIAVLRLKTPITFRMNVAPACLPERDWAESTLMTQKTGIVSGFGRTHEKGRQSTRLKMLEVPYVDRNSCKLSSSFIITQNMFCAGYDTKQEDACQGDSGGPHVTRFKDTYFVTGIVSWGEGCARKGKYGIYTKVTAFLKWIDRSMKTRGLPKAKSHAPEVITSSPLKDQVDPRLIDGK

Question: For FX-HPC4, which kcat/KM (human α-thrombin (FIIa)) is on record?
Answer: No Activity

Question: Human plasma purified α-thrombin was tested. Which kcat/KM [1] did it give?
Answer: 10000 M⁻¹ s⁻¹

Question: And the FIIa kcat/KM [2]?
Answer: 9000 M⁻¹ s⁻¹

Question: And the kcat/KM [2]?
Answer: 9000 M⁻¹ s⁻¹

Question: What about the FIIa kcat/KM [3] of the same substance?
Answer: 20000 M⁻¹ s⁻¹

Question: What about the kcat/KM [3] of the same substance?
Answer: 20000 M⁻¹ s⁻¹

Question: And the kcat/KM [4]?
Answer: 900 M⁻¹ s⁻¹

Question: What about the kcat/KM [5] of the same substance?
Answer: 9 M⁻¹ s⁻¹

Question: And the kcat/KM [6]?
Answer: 20000 M⁻¹ s⁻¹

Question: And the kcat/KM [7]?
Answer: 400 M⁻¹ s⁻¹

Question: And the kcat/KM [8]?
Answer: 0.0004 M⁻¹ s⁻¹

Question: What about the kcat/KM [9] of the same substance?
Answer: 700 M⁻¹ s⁻¹

Question: What about the FIIa kcat/KM [10] of the same substance?
Answer: 8400 M⁻¹ s⁻¹

Question: And the kcat/KM [10]?
Answer: 8400 M⁻¹ s⁻¹

Question: And the kcat/KM [11]?
Answer: 3 M⁻¹ s⁻¹

Question: And the kcat/KM [12]?
Answer: 1000 M⁻¹ s⁻¹

Question: And the kcat/KM [13]?
Answer: 600 M⁻¹ s⁻¹

Question: What about the kcat/KM [14] of the same substance?
Answer: 1000 M⁻¹ s⁻¹

Question: What about the kcat/KM [15] of the same substance?
Answer: 610 M⁻¹ s⁻¹

Question: What about the kcat/KM [16] of the same substance?
Answer: 200 M⁻¹ s⁻¹

Question: And the kcat/KM [17]?
Answer: 500 M⁻¹ s⁻¹

Question: What about the kcat/KM [18] of the same substance?
Answer: 2000 M⁻¹ s⁻¹

Question: What about the FIIa kcat/KM [19] of the same substance?
Answer: 30000 M⁻¹ s⁻¹

Question: What about the kcat/KM [19] of the same substance?
Answer: 30000 M⁻¹ s⁻¹

Question: And the kcat/KM [20]?
Answer: 7000 M⁻¹ s⁻¹

Question: What about the kcat/KM [21] of the same substance?
Answer: 600 M⁻¹ s⁻¹

Question: What about the kcat/KM [22] of the same substance?
Answer: 10000 M⁻¹ s⁻¹

Question: And the FIIa kcat/KM [23]?
Answer: 5000 M⁻¹ s⁻¹

Question: What about the kcat/KM [23] of the same substance?
Answer: 5000 M⁻¹ s⁻¹

Question: And the kcat/KM [24]?
Answer: 4000 M⁻¹ s⁻¹

Question: And the kcat/KM [25]?
Answer: 2 M⁻¹ s⁻¹

Question: What about the kcat/KM [26] of the same substance?
Answer: 3000 M⁻¹ s⁻¹

Question: What about the FIIa kcat/KM [27] of the same substance?
Answer: 20000 M⁻¹ s⁻¹

Question: And the kcat/KM [27]?
Answer: 20000 M⁻¹ s⁻¹

Question: And the kcat/KM [28]?
Answer: 30000 M⁻¹ s⁻¹

Question: What about the kcat/KM [29] of the same substance?
Answer: 500 M⁻¹ s⁻¹

Question: And the kcat/KM [30]?
Answer: 700 M⁻¹ s⁻¹

Question: And the kcat/KM [31]?
Answer: 1000 M⁻¹ s⁻¹

Question: What about the kcat/KM [32] of the same substance?
Answer: 40000 M⁻¹ s⁻¹

Question: What about the kcat/KM [33] of the same substance?
Answer: 0 M⁻¹ s⁻¹

Question: And the kcat/KM [34]?
Answer: 20000 M⁻¹ s⁻¹

Question: And the kcat/KM [35]?
Answer: 10 M⁻¹ s⁻¹

Question: What about the kcat/KM [36] of the same substance?
Answer: 800 M⁻¹ s⁻¹

Question: And the kcat/KM [37]?
Answer: 5000 M⁻¹ s⁻¹

Question: What about the kcat/KM [38] of the same substance?
Answer: 0 M⁻¹ s⁻¹

Question: What about the kcat/KM [39] of the same substance?
Answer: 700 M⁻¹ s⁻¹

Question: And the kcat/KM [40]?
Answer: 30 M⁻¹ s⁻¹

Question: What about the kcat/KM [41] of the same substance?
Answer: 800 M⁻¹ s⁻¹

Question: And the FIIa kcat/KM [42]?
Answer: 30000 M⁻¹ s⁻¹

Question: What about the kcat/KM [42] of the same substance?
Answer: 30000 M⁻¹ s⁻¹

Question: And the kcat/KM [43]?
Answer: 300 M⁻¹ s⁻¹

Question: What about the FIIa kcat/KM [44] of the same substance?
Answer: 9700 M⁻¹ s⁻¹

Question: And the kcat/KM [44]?
Answer: 9700 M⁻¹ s⁻¹

Question: And the kcat/KM [45]?
Answer: 2000 M⁻¹ s⁻¹

Question: What about the kcat/KM [46] of the same substance?
Answer: 1000 M⁻¹ s⁻¹

Question: And the kcat/KM [47]?
Answer: 1000 M⁻¹ s⁻¹

Question: What about the FIIa kcat/KM [48] of the same substance?
Answer: 9700 M⁻¹ s⁻¹

Question: What about the kcat/KM [48] of the same substance?
Answer: 9700 M⁻¹ s⁻¹

Question: And the kcat/KM [49]?
Answer: 2000 M⁻¹ s⁻¹

Question: And the kcat/KM [50]?
Answer: 7000 M⁻¹ s⁻¹

Question: What about the kcat/KM [51] of the same substance?
Answer: 9000 M⁻¹ s⁻¹

Question: And the kcat/KM [52]?
Answer: 2000 M⁻¹ s⁻¹

Question: And the FIIa kcat/KM [53]?
Answer: 7600 M⁻¹ s⁻¹

Question: And the kcat/KM [53]?
Answer: 7600 M⁻¹ s⁻¹

Question: What about the kcat/KM [54] of the same substance?
Answer: 1000 M⁻¹ s⁻¹

Question: human α-thrombin (FIIa) was tested. Which “activation rate (kcat/KM) by α-thrombin, relative to FX ins[194]>[DFLAEGGGVR]-HPC4” value [55] did it give?
Answer: This activation rate is 10× the observed activation rate for a variant having the unmodified FpA sequence (FX ins[194]>[DFLAEGGGVR]-HPC4)

Question: What about the “cleavage rate (kcat/KM) by thrombin” value [56] of the same substance?
Answer: The most improved natural substrate was shown to be the FpA_P sequence, which has a proline residue at X2 instead of the naturally occurring valine

Question: What about the “cleavage rate (kcat/KM) by thrombin, fold improvement over the parent PAR-1 sequence” value [57] of the same substance?
Answer: >20-fold improved cleavage rates (kcat/KM) over the parent PAR-1 sequence

Question: What about the “kinetic parameters (kcat, KM and kcat/KM) of activation, compared with the unconjugated molecule” value [58] of the same substance?
Answer: there is no significant effect of hepylation on the observed kinetic parameters for the tested molecule

Question: And the “kinetic parameters (kcat, KM and kcat/KM) of activation, compared with the unconjugated molecule” value [59]?
Answer: there is no significant effect of hepylation on the observed kinetic parameters for the tested molecule

Question: And the “kcat of activation by α-thrombin, relative to FX [191-194]>[MTPR]-HPC4” value (FX [191-194]>[LTPR]-HPC4)?
Answer: each of which have 5-10 fold higher kcat values than FX [191-194]>[MTPR]-HPC4

Question: And the “kinetic parameters (kcat, KM and kcat/KM) of activation, compared with the unconjugated molecule” value [60]?
Answer: there is no significant effect of hepylation on the observed kinetic parameters for the tested molecule

Question: What about the “kcat of activation by α-thrombin, relative to FX [191-194]>[MTPR]-HPC4” value [61] of the same substance?
Answer: each of which have 5-10 fold higher kcat values than FX [191-194]>[MTPR]-HPC4
